Measured values reported in PMC12416549 (2024).
Where a chain is given by its changes, count along the chain named. Names and notes keep the numbering of the source.

T1: TNFR1 (Homo sapiens, UniProt P19438)
T1 chain: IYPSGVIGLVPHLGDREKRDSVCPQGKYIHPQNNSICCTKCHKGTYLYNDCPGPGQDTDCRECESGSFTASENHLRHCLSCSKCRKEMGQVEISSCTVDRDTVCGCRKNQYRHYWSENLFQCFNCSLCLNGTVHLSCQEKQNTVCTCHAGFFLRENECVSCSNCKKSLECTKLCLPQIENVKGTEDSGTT

B1: K18L (designed binder)
chain: SMEEEVEKAAKEYEKKKLEAIEKHLEKLKAKDKEAAERFLKELEEAAKEYAKDEAKTMSEEEAKRRAKKYKEKVLLSELSEEEQKEIKEAEEKLVRTILKYVEEAAK
B2: E81G (designed binder)
chain: B1 chain with L18K, E81G
B3: E89F (designed binder)
chain: B1 chain with L18K, E89F
B4: K64D (designed binder)
chain: B1 chain with L18K, K64D
B5: K33F (designed binder)
chain: B1 chain with L18K, K33F
B6: K88M (designed binder)
chain: B1 chain with L18K, K88M
B7: E7H (designed binder)
chain: B1 chain with E7H, L18K
B8: E5R (designed binder)
chain: B1 chain with E5R, L18K
B9: K69V (designed binder)
chain: B1 chain with L18K, K69V
B10: V6I (designed binder)
chain: B1 chain with V6I, L18K
B11: S80D (designed binder)
chain: B1 chain with L18K, S80D
B12: K56D (designed binder)
chain: B1 chain with L18K, K56D
B13: K17E (designed binder)
chain: B1 chain with K17E, L18K
B14: R96K (designed binder)
chain: B1 chain with L18K, R96K
B15: K31S (designed binder)
chain: B1 chain with L18K, K31S
B16: K68V (designed binder)
chain: B1 chain with L18K, K68V
B17: L28Q (designed binder)
chain: B1 chain with L18K, L28Q
B18: A55T (designed binder)
chain: B1 chain with L18K, A55T
B19: I87K (designed binder)
chain: B1 chain with L18K, I87K
B20: L75H (designed binder)
chain: B1 chain with L18K, L75H
B21: A35V (designed binder)
chain: B1 chain with L18K, A35V
B22: E72R (designed binder)
chain: B1 chain with L18K, E72R
B23: E37K (designed binder)
chain: B1 chain with L18K, E37K
B24: A46D (designed binder)
chain: B1 chain with L18K, A46D
B25: A106H (designed binder)
chain: B1 chain with L18K, A106H
B26: K64F (designed binder)
chain: B1 chain with L18K, K64F
B27: M58V (designed binder)
chain: B1 chain with L18K, M58V
B28: Q84K (designed binder)
chain: B1 chain with L18K, Q84K
B29: D53F (designed binder)
chain: B1 chain with L18K, D53F
B30: E81K (designed binder)
chain: B1 chain with L18K, E81K
B31: L99W (designed binder)
chain: B1 chain with L18K, L99W
B32: E81T (designed binder)
chain: B1 chain with L18K, E81T
B33: E42K (designed binder)
chain: B1 chain with L18K, E42K
B34: Y50H (designed binder)
chain: B1 chain with L18K, Y50H
B35: D53G (designed binder)
chain: B1 chain with L18K, D53G
B36: A46F (designed binder)
chain: B1 chain with L18K, A46F
B37: E62D (designed binder)
chain: B1 chain with L18K, E62D
B38: K15F (designed binder)
chain: B1 chain with K15F, L18K
B39: Y70N (designed binder)
chain: B1 chain with L18K, Y70N
B40: L99D (designed binder)
chain: B1 chain with L18K, L99D
B41: A20R (designed binder)
chain: B1 chain with L18K, A20R
B42: K29V (designed binder)
chain: B1 chain with L18K, K29V
B43: L40P (designed binder)
chain: B1 chain with L18K, L40P
B44: A9Q (designed binder)
chain: B1 chain with A9Q, L18K
B45: K107V (designed binder)
chain: B1 chain with L18K, K107V
B46: T57I (designed binder)
chain: B1 chain with L18K, T57I
B47: E14T (designed binder)
chain: B1 chain with E14T, L18K
B48: E86N (designed binder)
chain: B1 chain with L18K, E86N
B49: K23F (designed binder)
chain: B1 chain with L18K, K23F
B50: K88T (designed binder)
chain: B1 chain with L18K, K88T
B51: S80G (designed binder)
chain: B1 chain with L18K, S80G
B52: K27I (designed binder)
chain: B1 chain with L18K, K27I
B53: K15M (designed binder)
chain: B1 chain with K15M, L18K
B54: Y70W (designed binder)
chain: B1 chain with L18K, Y70W
B55: E104H (designed binder)
chain: B1 chain with L18K, E104H
B56: E81N (designed binder)
chain: B1 chain with L18K, E81N
B57: E103T (designed binder)
chain: B1 chain with L18K, E103T
B58: S59E (designed binder)
chain: B1 chain with L18K, S59E
B59: A51K (designed binder)
chain: B1 chain with L18K, A51K

Target: T1, TNFR1
Assay: yeast display SC50

Binder | apparent Kd (screen)
B1 | 1.69 nM
B2 | 1.16 nM
B3 | 1.86 nM
B4 | 1.05 nM
B5 | 0.49 nM
B6 | 0.446 nM
B7 | 4.39 nM
B8 | 0.446 nM
B9 | 0.49 nM
B10 | 0.49 nM
B11 | 1.4 nM
B12 | 7.78 nM
B13 | 1.05 nM
B14 | 0.718 nM
B15 | 0.956 nM
B16 | 1.27 nM
B17 | 0.539 nM
B18 | 10.4 nM
B19 | 9.41 nM
B20 | 1.69 nM

Binder | apparent Kd (screen)
B21 | 0.653 nM
B22 | 7.07 nM
B23 | 0.49 nM
B24 | 2.73 nM
B25 | 1.54 nM
B26 | 0.49 nM
B27 | 2.25 nM
B28 | 7.07 nM
B29 | 2.48 nM
B30 | 0.593 nM
B31 | 11.4 nM
B32 | 0.718 nM
B33 | 0.368 nM
B34 | 13.8 nM
B35 | 12.5 nM
B36 | 16.7 nM
B37 | 0.446 nM
B38 | 0.446 nM
B39 | 8.56 nM
B40 | 11.4 nM

Binder | apparent Kd (screen)
B41 | 0.446 nM
B42 | 0.869 nM
B43 | 10.4 nM
B44 | 0.446 nM
B45 | 2.05 nM
B46 | 0.49 nM
B47 | 11.4 nM
B48 | 0.653 nM
B49 | 0.79 nM
B50 | 0.446 nM
B51 | 2.48 nM
B52 | 1.05 nM
B53 | 0.539 nM
B54 | 8.56 nM
B55 | 0.446 nM
B56 | 0.49 nM
B57 | 0.718 nM
B58 | 0.956 nM
B59 | 0.49 nM
